Biological target: procaspase-3 (endogenous, in cytosolic extract of 293T cells) (human) (UniProt P42574)
Assay: cell-based or functional assay

procaspase-3 (endogenous, in cytosolic extract of 293T cells) (human), sequence (P42574 whole entry): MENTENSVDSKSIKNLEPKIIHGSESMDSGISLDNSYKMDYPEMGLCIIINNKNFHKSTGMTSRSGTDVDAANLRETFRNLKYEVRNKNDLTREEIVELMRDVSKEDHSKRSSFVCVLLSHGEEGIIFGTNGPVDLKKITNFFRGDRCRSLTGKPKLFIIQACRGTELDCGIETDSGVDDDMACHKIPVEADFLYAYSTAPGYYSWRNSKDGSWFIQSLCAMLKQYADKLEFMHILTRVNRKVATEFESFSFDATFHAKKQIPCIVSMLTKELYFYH

- DEVDase activity of cytosolic extract of NK1R-transfected 293T cells: 7 fold
Substance: granzyme B (enzyme)

Source: patent US20050244894A1
